Assay results published in PMC4749184, “Viral Replication Protein Inhibits Cellular Cofilin Actin Depolymerization Factor to Regulate the Actin Network and Promote Viral Replicase Assembly” (PLoS Pathogens, 2016).

T1: FLAG-tagged p33 replication protein (Tomato bushy stunt virus, UniProt P15962 1-296)
T1 construct: p33 replication protein of Tomato bushy stunt virus (tombusvirus); also called FLAG-p33; source: yeast (BY4741, cof1 ts and act1 ts strains), CUP1 promoter, in detergent-solubilized membrane fraction
T1 sequence: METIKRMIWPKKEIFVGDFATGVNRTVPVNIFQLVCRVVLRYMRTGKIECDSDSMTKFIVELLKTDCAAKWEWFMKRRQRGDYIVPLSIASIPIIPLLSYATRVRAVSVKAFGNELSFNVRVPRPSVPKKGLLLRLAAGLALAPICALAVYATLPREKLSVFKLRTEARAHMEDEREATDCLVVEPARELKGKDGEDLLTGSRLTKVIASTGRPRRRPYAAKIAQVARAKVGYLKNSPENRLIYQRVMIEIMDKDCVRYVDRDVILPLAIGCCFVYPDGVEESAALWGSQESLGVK

B1: Rpn11 deubiquitinase (enzyme, yeast (S. cerevisiae), UniProt P43588 1-306, looked up)
chain: MERLQRLMMNSKVGSADTGRDDTKETVYISSIALLKMLKHGRAGVPMEVMGLMLGEFVDDYTVNVVDVFAMPQSGTGVSVEAVDDVFQAKMMDMLKQTGRDQMVVGWYHSHPGFGCWLSSVDVNTQKSFEQLNSRAVAVVVDPIQSVKGKVVIDAFRLIDTGALINNLEPRQTTSNTGLLNKANIQALIHGLNRHYYSLNIDYHKTAKETKMLMNLHKEQWQSGLKMYDYEEKEESNLAATKSMVKIAEQYSKRIEEEKELTEEELKTRYVGRQDPKKHLSETADETLENNIVSVLTAGVNSVAIK
notes: Rpn11 deubiquitinase, cellular host factor in yeast; source: yeast (act1-132 ts and WT), co-purified with p33
B2: Vps23 ESCRT I (Vps23p ESCRT factor) (natural protein, yeast (S. cerevisiae), UniProt P25604 1-385, looked up)
chain: MSANGKISVPEAVVNWLFKVIQPIYNDGRTTFHDSLALLDNFHSLRPRTRVFTHSDGTPQLLLSIYGTISTGEDGSSPHSIPVIMWVPSMYPVKPPFISINLENFDMNTISSSLPIQEYIDSNGWIALPILHCWDPAAMNLIMVVQELMSLLHEPPQDQAPSLPPKPNTQLQQEQNTPPLPPKPKSPHLKPPLPPPPPPQPASNALDLMDMDNTDISPTNHHEMLQNLQTVVNELYREDVDYVADKILTRQTVMQESIARFHEIIAIDKNHLRAVEQAIEQTMHSLNAQIDVLTANRAKVQQFSSTSHVDDEDVNSIAVAKTDGLNQLYNLVAQDYALTDTIECLSRMLHRGTIPLDTFVKQGRELARQQFLVRWHIQRITSPLS
notes: Vps23p, ESCRT-I factor, cellular host factor in yeast; source: yeast (act1-132 ts and WT), co-purified with p33
B3: Tdh2 GAPDH (Tdh2p) (enzyme, yeast (S. cerevisiae), UniProt P00358 1-332, looked up)
chain: MVRVAINGFGRIGRLVMRIALQRKNVEVVALNDPFISNDYSAYMFKYDSTHGRYAGEVSHDDKHIIVDGHKIATFQERDPANLPWASLNIDIAIDSTGVFKELDTAQKHIDAGAKKVVITAPSSTAPMFVMGVNEEKYTSDLKIVSNASCTTNCLAPLAKVINDAFGIEEGLMTTVHSMTATQKTVDGPSHKDWRGGRTASGNIIPSSTGAAKAVGKVLPELQGKLTGMAFRVPTVDVSVVDLTVKLNKETTYDEIKKVVKAAAEGKLKGVLGYTEDAVVSSDFLGDSNSSIFDAAAGIQLSPKFVKLVSWYDNEYGYSTRVVDLVEHVAKA
notes: Tdh2p, glyceraldehyde-3-phosphate dehydrogenase, cellular host factor in yeast; source: yeast (act1-132 ts and WT), co-purified with p33
B4: His6-tagged Osh6 protein (yeast Osh6p ORP) (natural protein, yeast (S. cerevisiae), UniProt Q02201 1-448, looked up)
chain: MGSKKLTVGSDSHRLSKSSFSSNKSSHSATKDQPIDTDDIDEDDESGHNIILNIISQLRPGCDLTRITLPTFILEKKSMLERVTNQLQFPEFLLQAHSEKDPLKRFLYVMKWYLAGWHIAPKAVKKPLNPVLGEYFTAYWDLPNKQQAYYISEQTSHHPPECAYFYMIPESSIRVDGVVIPKSRFLGNSSAAMMDGSTVLQFLDIKDGNGKPEKYVLTQPNVYVRGILFGKMRIELGDHMIIKSPNFQADIEFKTKGYVFGTYDAIEGTVKDYDGNAYYEISGKWNDVMYLKDLKQPRSSPKVFLDTHKESPLRPKVRPLSEQGEYESRKLWKKVTDALAVRNHPVATEEKFQIEDHQRQLAKKRIEDGVEFHPKLFRRSKPGEDLDYCIYKNIPVDEDPEKQIRSILQIAPILPGQQFTDKFFIPAFEKIKSQKKMIENEKQNPAKQ
notes: also called Osh6 ORP; 6xHis-Osh6p; source: yeast, GAL1 promoter (UpYC-NT-Gal1-OSH6), in detergent-solubilized membrane fraction
B5: Cdc34 E2 enzyme (ubiquitin-conjugating enzyme) (enzyme, yeast (S. cerevisiae), UniProt P14682 1-295, looked up)
chain: MSSRKSTASSLLLRQYRELTDPKKAIPSFHIELEDDSNIFTWNIGVMVLNEDSIYHGGFFKAQMRFPEDFPFSPPQFRFTPAIYHPNVYRDGRLCISILHQSGDPMTDEPDAETWSPVQTVESVLISIVSLLEDPNINSPANVDAAVDYRKNPEQYKQRVKMEVERSKQDIPKGFIMPTSESAYISQSKLDEPESNKDMADNFWYDSDLDDDENGSVILQDDDYDDGNNHIPFEDDDVYNYNDNDDDDERIEFEDDDDDDDDSIDNDSVMDRKQPHKAEDESEDVEDVERVSKKI
notes: Cdc34 ubiquitin-conjugating enzyme, cellular host factor in yeast; source: yeast (act1-132 ts and WT), co-purified with p33
B6: Vps4 AAA ATPase (Vps4p) (enzyme, yeast (S. cerevisiae), UniProt P52917 1-437, looked up)
chain: MSTGDFLTKGIELVQKAIDLDTATQYEEAYTAYYNGLDYLMLALKYEKNPKSKDLIRAKFTEYLNRAEQLKKHLESEEANAAKKSPSAGSGSNGGNKKISQEEGEDNGGEDNKKLRGALSSAILSEKPNVKWEDVAGLEGAKEALKEAVILPVKFPHLFKGNRKPTSGILLYGPPGTGKSYLAKAVATEANSTFFSVSSSDLVSKWMGESEKLVKQLFAMARENKPSIIFIDEVDALTGTRGEGESEASRRIKTELLVQMNGVGNDSQGVLVLGATNIPWQLDSAIRRRFERRIYIPLPDLAARTTMFEINVGDTPCVLTKEDYRTLGAMTEGYSGSDIAVVVKDALMQPIRKIQSATHFKDVSTEDDETRKLTPCSPGDDGAIEMSWTDIEADELKEPDLTIKDFLKAIKSTRPTVNEDDLLKQEQFTRDFGQEGN
notes: Vps4p AAA ATPase, cellular host factor in yeast; source: yeast (act1-132 ts and WT), co-purified with p33
B7: 6xHis-Vap27-1 (VAP protein, Scs2-like plant ortholog) (natural protein, UniProt Q8VZ95 1-256, looked up)
chain: MSNIDLIGMSNRDLIGMSNSELLTVEPLDLQFPFELKKQISCSLYLTNKTDNNVAFKVKTTNPKKYCVRPNTGVVLPRSTCEVLVTMQAQKEAPSDMQCKDKFLLQGVIASPGVTAKEVTPEMFSKEAGHRVEETKLRVTYVAPPRPPSPVHEGSEEGSSPRASVSDNGHGSEFSFERFIVDNKAGHQENTSEARALITKLTEEKQSAIQLNNRLQRELDQLRRESKKSQSGGIPFMYVLLVGLIGLILGYIMKRT
notes: Vap27-1, VAMP-associated protein, a plant ortholog of yeast Scs2p; also called Vap27-1 (Scs2-like); ER-localized Vap27-1; source: expressed in yeast, in detergent-solubilized membrane fraction
B8: Pbp2 RNA binding protein (natural protein, yeast (S. cerevisiae), UniProt P38151 1-413, looked up)
chain: MSTETTKPSITTTPTTVLVSPNTLKRKKGEDTSEEQLEAEIKRVALKDADSHSDNDHDSPDNVPSDVHLRMLCLVKHASLIVGHKGATISRIKSETSARINISNNIRGVPERIVYVRGTCDDVAKAYGMIVRALLEEHGNEDNGEDIEISINLLIPHHLMGCIIGKRGSRLREIEDLSAAKLFASPNQLLLSNDRILTINGVPDAIHIATFYISQTLLNFQMESPQKNVKRSIYYQPTQFNSVLIDHSQPNTIFHQRNHQYHPSDKLLSYKPNKNLPISSTLLSMATPQYTTASVANATAFQPNFVIPNVTVLDGPVISPAPGNHLLMNFVQQEIFIDEKFVGNVIGKDGKHINSVKESTGCSIIIQDPVEGSSERRLTIRGTFMASQAAIMLISNKIEIDRSNAERKRRSPL
notes: source: yeast (act1-132 ts and WT), co-purified with p33
B9: Tef1 eEF1A (Tef1p) (natural protein, yeast (S. cerevisiae), UniProt P02994 1-458, looked up)
chain: MGKEKSHINVVVIGHVDSGKSTTTGHLIYKCGGIDKRTIEKFEKEAAELGKGSFKYAWVLDKLKAERERGITIDIALWKFETPKYQVTVIDAPGHRDFIKNMITGTSQADCAILIIAGGVGEFEAGISKDGQTREHALLAFTLGVRQLIVAVNKMDSVKWDESRFQEIVKETSNFIKKVGYNPKTVPFVPISGWNGDNMIEATTNAPWYKGWEKETKAGVVKGKTLLEAIDAIEQPSRPTDKPLRLPLQDVYKIGGIGTVPVGRVETGVIKPGMVVTFAPAGVTTEVKSVEMHHEQLEQGVPGDNVGFNVKNVSVKEIRRGNVCGDAKNDPPKGCASFNATVIVLNHPGQISAGYSPVLDCHTAHIACRFDELLEKNDRRSGKKLEDHPKFLKSGDAALVKFVPSKPMCVEAFSEYPPLGRFAVRDMRQTVAVGVIKSVDKTEKAAKVTKAAQKAAKK
notes: Tef1p, eukaryotic elongation factor 1A, cellular host factor in yeast; source: yeast (act1-132 ts and WT), co-purified with p33

Target: T1, FLAG-tagged p33 replication protein
Assay: co-IP; FLAG-affinity column purification of FLAG-p33 (co-expressed with FLAG-p92) from detergent-solubilized membrane fraction of yeast after cross-linking with 1% formaldehyde for 1 h on ice; co-purified His6-tagged host proteins detected by Western blot with anti-His antibody; yeast expressing His6-p33 as control; WT (BY4741), cof1-8 ts, cof1-22 ts, act1-121 ts, act1-132 ts, act1-105 ts and act1-112 ts yeasts at …
Details: partners not purified

Binder	co-purified with p33 from act1-132 yeast, percent of co-purification from WT yeast [%]
B1	161
B2	108
B3	111
B4	258
B5	207
B6	53
B7	218
B8	85
B9	96
